Experimental data: publication doi:10.1101/2022.06.13.495963 (bioRxiv, 2022)

Molecular target: B-Myb negative regulatory domain, amino acids 440-600 (NRD^440-600) (human, UniProt P10244-1 440-600)
Experiment: ITC

Sequence of B-Myb negative regulatory domain, amino acids 440-600 (NRD^440-600) (P10244 440-600): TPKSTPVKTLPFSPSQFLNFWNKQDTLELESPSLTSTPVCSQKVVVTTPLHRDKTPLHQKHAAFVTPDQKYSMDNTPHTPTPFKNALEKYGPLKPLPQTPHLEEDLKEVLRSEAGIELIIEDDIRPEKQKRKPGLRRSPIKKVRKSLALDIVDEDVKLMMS

Kd: 4.5 µM
B1: B-Myb DNA binding domain (B-Myb^34-183) (domain or fragment)
chain: not shown
